Measured values from patent US11654198B2, “Application of combination of polyethylene glycol and local anesthetic in non-narcotic analgesia” (JENKEM TECHNOLOGY CO., LTD. (TIANJIN), priority 2016, dated 2023).

Legend:
SD rats [1] = assay: Motor block four-level score (Example 30); format: in vivo, rat; parameters: key to motor function score: 1 = normal motor function to 4 = complete loss with gait defect; conditions: for motor function score: direct injection around sciatic nerve, conjugate 10/11/12 at 32/24/48 mg/kg (as bupivacaine); for motor scores at different time points versus vehicle group: direct injection, conjugate 10/11/12 at 32/24/48 mg/kg; for effect on motor function of SD rats: conjugate 10 at 32 mg/kg, conjugate 11 at 24 mg/kg
Method: Male Sprague-Dawley rats are used in the study, about 230-250 g when accepted, and acclimated for at least 7 days prior to the experiment. Two rats are raised in each cage and fed freely with feed and water. The environmental conditions of the breeding room are 23±2° C., and the relative humidity is 40% to 70%, alternating 12 hours of light and dark. […] The qualified rats are randomly divided into 4 groups, 4 rats in each group, which are labeled as groups G1, G2, G3, and G4, respectively. Administration by direct injection in the sciatic nerve is adopted, and with the rat's back facing up, the drug is injected around the right sciatic nerve trunk between the right hip and the right thigh.
(§1) Motor block (four-level score): The exercise condition of each group of rats is evaluated by the motor block four-level scoring method. The scoring criteria are: paws can be dorsiflexed, stretched, valgus and other normal exercises, scored by 1 point; paws can be dorsiflexed, bendable or after the adduction, although the paws can be stretched after the adduction, the stretching ability is weakened, scored by 2 points; the paw can perform dorsiflexion, but no longer has the ability to stretch, scored by 3 points; the paws completely lose the ability of dorsiflexion, curling and stretching, and the rats produce a gait defect, scored by 4 points. The time point for measuring the motor block score is before administration, and 0.5 h, 1 h, 2 h, 4 h, 6 h, 8 h, 12 h, and 24 h after administration.

SD rats [2] = assay: Motor block four-level score, rat sciatica model (SNL) (Example 32); format: in vivo; parameters: key to motor function score: 1 = normal paw movement to 4 = complete loss, gait defect; conditions: for motor function score: bupivacaine 8, conjugate 10/11/12 32/24/48 mg/kg; for effect on motor function of SD rats: conjugate 10/11/12 at 32/24/48 mg/kg
Text: Intervertebral disc compression (SNL): This model is a pathological form that simulates clinical disc herniation. The specific method is to remove the autogenous caudal intervertebral disc tissue (annulus fibrosus and nucleus pulposus) form the rats and place the caudal intervertebral disc tissue between the proximal nerve root of the L5 dorsal root ganglion and the lower vertebral body to directly compress the L5 nerve root, wherein damage to the L5 nerve root or dorsal root ganglion should be avoided during the operation. 3 to 15 days after the model is successful, rats develop significant hyperalgesia, so the administration time we chose is between 3 days and 15 days.
Qualified rats are randomly divided into 5 groups, 6 rats in each group, which are labeled as groups G1, G2, G3, G4 and G5, respectively. Administration by intramuscular injection around sciatic nerve is adopted, and the grouping information of the experimental animals is shown in Table 11.
Motor block (four-level score): The exercise condition of each group of rats is evaluated by the motor block four-level scoring method. The scoring criteria are: paws can be dorsiflexed, stretched, valgus and other normal exercises, scored by 1 point; paws can be dorsiflexed, bendable or after the adduction, although the paws can be stretched, the stretching ability is weakened, scored by 2 points; the paw can perform dorsiflexion, but no longer has the ability to stretch, scored by 3 points; the paw completely loses the ability of dorsiflexion, curling and stretching, and the rats produce a gait defect, scored by 4 points. The time point for determining the withdrawal time of the hot plate is before administration, and 0.5 h, 1 h, 2 h, 4 h, 6 h, 8 h, 12 h, and 24 h after administration.

SD rats [3] = assay: Motor block four-level score, rat plantar incision model (Example 31); format: in vivo; parameters: key to motor function score: 1 = normal paw movement to 4 = complete loss of movement with gait defect; conditions: for motor function score: bupivacaine 8, conjugate 10/11/12 32/24/48 mg/kg; for effect on motor function of SD rats: conjugate 10/11/12 at 32/24/48 mg/kg
Method: After SD rats inhale anesthesia (isoflurane), an incision of about 1 cm in length from the proximal end of the pelma to the toe is made: after the skin and fascia are cut, the plantar muscle is picked up with an ophthalmic forceps and cut longitudinally (maintaining the starting and ending point and attachment of muscles); pressing is carried out for hemostasis, physiological saline and test drugs are injected into the muscles of animal's legs, and then the pain threshold detection is performed by the hot plate method. Within 24 hours after the model is successful, the rats develop significant hyperalgesia. Qualified rats are randomly divided into 5 groups, 6 rats in each group, which are labeled as groups G1, G2, G3, G4 and G5, respectively. The plantar subcutaneous injection method for administration is used, and the grouping information of the experimental animals is shown in Table 8.
as §1, with “can be stretched, the stretching” for “can be stretched after the adduction, the stretching”, “points; the paws can perform” for “points; the paw can perform”

| Compound | motor function score (SD rats [1]; 0 h (before administration)) | motor function score (SD rats [1]; 0.5 h) | motor function score (SD rats [1]; 1 h) | motor function score (SD rats [2]; 0.5 h) | motor function score (SD rats [2]; 1 h) | motor function score (SD rats [2]; 2 h) | motor function score (SD rats [2]; 4 h) | motor function score (SD rats [2]; 6 h) | motor function score (SD rats [2]; 8 h) | motor function score (SD rats [2]; 12 h) | motor function score (SD rats [2]; 24 h) | motor function score (SD rats [3]; 0 h (before administration)) | motor function score (SD rats [3]; 0.5 h) | motor function score (SD rats [3]; 1 h) | motor function score (SD rats [3]; 2 h) | motor function score (SD rats [3]; 4 h) | motor function score (SD rats [3]; 6 h) | motor function score (SD rats [3]; 8 h) | motor function score (SD rats [3]; 12 h) | motor function score (SD rats [3]; 24 h) | further results |
| --- | --- | --- | --- | --- | --- | --- | --- | --- | --- | --- | --- | --- | --- | --- | --- | --- | --- | --- | --- | --- | --- |
| 8-Arm-PEG-Bupivacaine, 20K [bupivacaine conjugate 12] | 1 ± 0 | 1 ± 0 | 1 ± 0 | 1 ± 0 | 1 ± 0 | 1 ± 0 | 1 ± 0 | 1 ± 0 | 1 ± 0 | 1 ± 0 | 1 ± 0 | 1 ± 0 | 1 ± 0 | 1 ± 0 | 1 ± 0 | 1 ± 0 | 1 ± 0 | 1 ± 0 | 1 ± 0 | 1 ± 0 | motor function score (SD rats [1]; 2 h): 1 ± 0; motor function score (SD rats [1]; 4 h): 1 ± 0; motor function score (SD rats [1]; 6 h): 1 ± 0; motor function score (SD rats [1]; 8 h): 1 ± 0; motor function score (SD rats [1]; 12 h): 1 ± 0; motor function score (SD rats [1]; 24 h): 1 ± 0; motor scores at different time points versus vehicle group (SD rats [1]): not significantly different; effect on motor function of SD rats (SD rats [2]): does not affect the motor function; effect on motor function of SD rats (SD rats [3]): does not affect the motor function |
| 8-Arm-PEG-Bupivacaine, 20K [bupivacaine conjugate 11] | 1 ± 0 | 1 ± 0 | 1 ± 0 | 1 ± 0 | 1 ± 0 | 1 ± 0 | 1 ± 0 | 1 ± 0 | 1 ± 0 | 1 ± 0 | 1 ± 0 | 1 ± 0 | 1 ± 0 | 1 ± 0 | 1 ± 0 | 1 ± 0 | 1 ± 0 | 1 ± 0 | 1 ± 0 | 1 ± 0 | motor function score (SD rats [1]; 2 h): 1 ± 0; motor function score (SD rats [1]; 4 h): 1 ± 0; motor function score (SD rats [1]; 6 h): 1 ± 0; motor function score (SD rats [1]; 8 h): 1 ± 0; motor function score (SD rats [1]; 12 h): 1 ± 0; motor function score (SD rats [1]; 24 h): 1 ± 0; effect on motor function of SD rats (SD rats [1]): does not affect the motor function; motor scores at different time points versus vehicle group (SD rats [1]): not significantly different; effect on motor function of SD rats (SD rats [2]): does not affect the motor function; effect on motor function of SD rats (SD rats [3]): does not affect the motor function |
| CCCCN1CCCCC1C(=O)Nc1c(C)cccc1C (stereo not shown) [bupivacaine] |  |  |  | 1 ± 0 | 1.75 ± 0.5 | 1.75 ± 0.5 | 1.75 ± 0.5 | 1.75 ± 0.5 | 1.75 ± 0.5 | 1 ± 0 | 1 ± 0 | 1 ± 0 | 1 ± 0 | 1.75 ± 0.5 | 1.75 ± 0.5 | 1.75 ± 0.5 | 1.75 ± 0.5 | 1.75 ± 0.5 | 1 ± 0 | 1 ± 0 |  |
| 8-Arm-PEG-Bupivacaine, 20K [bupivacaine conjugate 10] | 1 ± 0 | 1 ± 0 | 1.75 ± 0.5 | 1 ± 0 | 1.75 ± 0.5 | 1.75 ± 0.5 | 1.75 ± 0.5 | 1.75 ± 0.5 | 1.75 ± 0.5 | 1 ± 0 | 1 ± 0 | 1 ± 0 | 1 ± 0 | 1.75 ± 0.5 | 1.75 ± 0.5 | 1.75 ± 0.5 | 1.75 ± 0.5 | 1.75 ± 0.5 | 1 ± 0 | 1 ± 0 | motor function score (SD rats [1]; 2 h): 1.75 ± 0.5; motor function score (SD rats [1]; 4 h): 1.75 ± 0.5; motor function score (SD rats [1]; 6 h): 1.75 ± 0.5; motor function score (SD rats [1]; 8 h): 1.75 ± 0.5; motor function score (SD rats [1]; 12 h): 1 ± 0; motor function score (SD rats [1]; 24 h): 1 ± 0; effect on motor function of SD rats (SD rats [1]): does not affect the motor function; motor scores at different time points versus vehicle group (SD rats [1]): not significantly different; effect on motor function of SD rats (SD rats [2]): does not affect the motor function; effect on motor function of SD rats (SD rats [3]): does not affect the motor function |
